Assay results taken from patent US20240343814A1.

Key:
[1] = target: Recombinant human his-tagged IGF 1R extracellular domain protein (human) (UniProt P08069); assay: SPR, captured IgG, IGF-1R ECD-his analyte, dissociation pH 7.4
[2] = target: Recombinant human his-tagged IGF 1R extracellular domain protein (human) (UniProt P08069); assay: SPR, captured IgG, IGF-1R ECD-his analyte, dissociation pH 6

Row | Binder | Kd [1] [nM] | koff [1] [s⁻¹] | kon [1] [M⁻¹ s⁻¹] | Kd [2] [nM] | koff [2] [s⁻¹] | kon [2] [M⁻¹ s⁻¹]
1 | VRDN-02537 (antibody, V domains shown) VH: EVQLVQSGGGLVKPGGSLRLSCAASGFTFSSFAMHWVRQAPGKGLEWISVIDTRGATYYADSVKGRFTISRDNAKNSLYLQMNSLRAEDTAVYYCARLGNFYYGMDVWGQGTTVTVSS VL: EIVLTQSPGTLSVSPGERATLSCRASQSIGSSHHWYQQKPGQAPRLLIKYASQSLSGIPDRFSGSGSGTDFTLTISRLEPEDFAVYYCHQSSRLPHTFGQGTKVEIK | 0.802 | 7.16e-05 | 89300 | 0.036 | 1e-06 | 27800
2 | VRDN-02504 (antibody, V domains shown) VH: EVQLVQSGGGLVKPGGSLRLSCAASGFTHSSFAMHWVRQAPGKGLEWISVIDTRGATYYADSVKGRFTISRDNAKNSLYLQMNSLRAEDTAVYYCARLGNFYYGMDVWGQGTTVTVSS VL: EIVLTQSPGTLSVSPGERATLSCRASQSIGSSLHWYQQKPGQAPRLLIKYASQSLSGIPDRFSGSGSGTDFTLTISRLEPEDFAVYYCHQSSRLPHTFGQGTKVEIK | 5.08 | 0.000186 | 36600 | 0.0242 | 1e-06 | 41300
3 | VRDN-02544 (antibody, V domains shown) VH: EVQLVQSGGGLVKPGGSLRLSCAASGFTFSSFAMHWVRQAPGKGLEWISVIDTRGATYYADSVKGRFTISRDNAKNSLYLQMNSLRAEDTAVYYCARLGNFYYGMDVWGQGTTVTVSS VL: EIVLTQSPGTLSVSPGERATLSCRASQSIGSSLHWYQQKPGQAPRLLIKYASQSHSGIPDRFSGSGSGTDFTLTISRLEPEDFAVYYCHQSSRLPHTFGQGTKVEIK | 0.483 | 6.18e-05 | 128000 | 0.0275 | 1e-06 | 36300
4 | VRDN-02546 (antibody, V domains shown) VH: EVQLVQSGGGLVKPGGSLRLSCAASGFTFSSFAMHWVRQAPGKGLEWISVIDTRGATYYADSVKGRFTISRDNAKNSLYLQMNSLRAEDTAVYYCARLGNFYYGMDVWGQGTTVTVSS VL: EIVLTQSPGTLSVSPGERATLSCRASQSIGSSLHWYQQKPGQAPRLLIKYASQSLSGIPDRFSGSGSGTDFTLTISRLEPEDFAVYYCHHSSRLPHTFGQGTKVEIK | 0.491 | 5.94e-05 | 121000 | 0.0259 | 1e-06 | 38600
5 | VRDN-02540 (antibody, V domains shown) VH: EVQLVQSGGGLVKPGGSLRLSCAASGFTFSSFAMHWVRQAPGKGLEWISVIDTRGATYYADSVKGRFTISRDNAKNSLYLQMNSLRAEDTAVYYCARLGNFYYGMDVWGQGTTVTVSS VL: EIVLTQSPGTLSVSPGERATLSCRASQSIGSSLHWYQQKPGQAPRLLIKYHSQSLSGIPDRFSGSGSGTDFTLTISRLEPEDFAVYYCHQSSRLPHTFGQGTKVEIK | 0.434 | 4.25e-05 | 97900 | 0.0662 | 1e-06 | 15100
6 | VRDN-02548 (antibody, V domains shown) VH: EVQLVQSGGGLVKPGGSLRLSCAASGFTFSSFAMHWVRQAPGKGLEWISVIDTRGATYYADSVKGRFTISRDNAKNSLYLQMNSLRAEDTAVYYCARLGNFYYGMDVWGQGTTVTVSS VL: EIVLTQSPGTLSVSPGERATLSCRASQSIGSSLHWYQQKPGQAPRLLIKYASQSLSGIPDRFSGSGSGTDFTLTISRLEPEDFAVYYCHQSHRLPHTFGQGTKVEIK | 0.721 | 8.72e-05 | 121000 | 0.0251 | 1e-06 | 39800
7 | VRDN-02543 (antibody, V domains shown) VH: EVQLVQSGGGLVKPGGSLRLSCAASGFTFSSFAMHWVRQAPGKGLEWISVIDTRGATYYADSVKGRFTISRDNAKNSLYLQMNSLRAEDTAVYYCARLGNFYYGMDVWGQGTTVTVSS VL: EIVLTQSPGTLSVSPGERATLSCRASQSIGSSLHWYQQKPGQAPRLLIKYASQHLSGIPDRFSGSGSGTDFTLTISRLEPEDFAVYYCHQSSRLPHTFGQGTKVEIK | 0.391 | 4.38e-05 | 112000 | 0.025 | 1e-06 | 40000
8 | VRDN-02545 (antibody, V domains shown) VH: EVQLVQSGGGLVKPGGSLRLSCAASGFTFSSFAMHWVRQAPGKGLEWISVIDTRGATYYADSVKGRFTISRDNAKNSLYLQMNSLRAEDTAVYYCARLGNFYYGMDVWGQGTTVTVSS VL: EIVLTQSPGTLSVSPGERATLSCRASQSIGSSLHWYQQKPGQAPRLLIKYASQSLHGIPDRFSGSGSGTDFTLTISRLEPEDFAVYYCHQSSRLPHTFGQGTKVEIK | 0.622 | 3.03e-05 | 48700 | 0.027 | 1e-06 | 37000

Stronger by Kd [1], values ahead:

Row | Kd [1] [nM] | koff [1] [s⁻¹] | kon [1] [M⁻¹ s⁻¹] | Kd [2] [nM] | koff [2] [s⁻¹] | kon [2] [M⁻¹ s⁻¹] | Binder
9 | 0.0051 | 1e-06 | 196000 | 0.0393 | 1.17e-06 | 29800 | VRDN-02534 (antibody, V domains shown) VH: EVQLVQSGGGLVKPGGSLRLSCAASGFTFSSFAMHWVRQAPGKGLEWISVIDTRGATYYADSVKGRFTISRDNAKNSLYLQMNSLRAEDTAVYYCARLGNFYYGMDVWGQGTTVTVSS VL: EIVLTQSPGTLSVSPGERATLSCRASQSIHSSLHWYQQKPGQAPRLLIKYASQSLSGIPDRFSGSGSGTDFTLTISRLEPEDFAVYYCHQSSRLPHTFGQGTKVEIK
10 | 0.0084 | 1e-06 | 119000 | 0.0251 | 1e-06 | 39800 | VRDN-02547 (antibody, V domains shown) VH: EVQLVQSGGGLVKPGGSLRLSCAASGFTFSSFAMHWVRQAPGKGLEWISVIDTRGATYYADSVKGRFTISRDNAKNSLYLQMNSLRAEDTAVYYCARLGNFYYGMDVWGQGTTVTVSS VL: EIVLTQSPGTLSVSPGERATLSCRASQSIGSSLHWYQQKPGQAPRLLIKYASQSLSGIPDRFSGSGSGTDFTLTISRLEPEDFAVYYCHQHSRLPHTFGQGTKVEIK
11 | 0.327 | 3.89e-05 | 119000 | 0.0251 | 1e-06 | 39800 | VRDN-02549 (antibody, V domains shown) VH: EVQLVQSGGGLVKPGGSLRLSCAASGFTFSSFAMHWVRQAPGKGLEWISVIDTRGATYYADSVKGRFTISRDNAKNSLYLQMNSLRAEDTAVYYCARLGNFYYGMDVWGQGTTVTVSS VL: EIVLTQSPGTLSVSPGERATLSCRASQSIGSSLHWYQQKPGQAPRLLIKYASQSLSGIPDRFSGSGSGTDFTLTISRLEPEDFAVYYCHQSSHLPHTFGQGTKVEIK
12 | 0.00654 | 1e-06 | 153000 | 0.028 | 1e-06 | 35700 | VRDN-02541 (antibody, V domains shown) VH: EVQLVQSGGGLVKPGGSLRLSCAASGFTFSSFAMHWVRQAPGKGLEWISVIDTRGATYYADSVKGRFTISRDNAKNSLYLQMNSLRAEDTAVYYCARLGNFYYGMDVWGQGTTVTVSS VL: EIVLTQSPGTLSVSPGERATLSCRASQSIGSSLHWYQQKPGQAPRLLIKYAHQSLSGIPDRFSGSGSGTDFTLTISRLEPEDFAVYYCHQSSRLPHTFGQGTKVEIK
13 | 0.131 | 2.09e-05 | 160000 | 0.027 | 1e-06 | 37000 | VRDN-02550 (antibody, V domains shown) VH: EVQLVQSGGGLVKPGGSLRLSCAASGFTFSSFAMHWVRQAPGKGLEWISVIDTRGATYYADSVKGRFTISRDNAKNSLYLQMNSLRAEDTAVYYCARLGNFYYGMDVWGQGTTVTVSS VL: EIVLTQSPGTLSVSPGERATLSCRASQSIGSSLHWYQQKPGQAPRLLIKYASQSLSGIPDRFSGSGSGTDFTLTISRLEPEDFAVYYCHQSSRHPHTFGQGTKVEIK
14 | 0.00746 | 1e-06 | 134000 | 0.0228 | 1e-06 | 43900 | VRDN-02536 (antibody, V domains shown) VH: EVQLVQSGGGLVKPGGSLRLSCAASGFTFSSFAMHWVRQAPGKGLEWISVIDTRGATYYADSVKGRFTISRDNAKNSLYLQMNSLRAEDTAVYYCARLGNFYYGMDVWGQGTTVTVSS VL: EIVLTQSPGTLSVSPGERATLSCRASQSIGSHLHWYQQKPGQAPRLLIKYASQSLSGIPDRFSGSGSGTDFTLTISRLEPEDFAVYYCHQSSRLPHTFGQGTKVEIK
15 | 0.363 | 4.07e-05 | 112000 | 0.0273 | 1e-06 | 36600 | VRDN-02535 (antibody, V domains shown) VH: EVQLVQSGGGLVKPGGSLRLSCAASGFTFSSFAMHWVRQAPGKGLEWISVIDTRGATYYADSVKGRFTISRDNAKNSLYLQMNSLRAEDTAVYYCARLGNFYYGMDVWGQGTTVTVSS VL: EIVLTQSPGTLSVSPGERATLSCRASQSIGHSLHWYQQKPGQAPRLLIKYASQSLSGIPDRFSGSGSGTDFTLTISRLEPEDFAVYYCHQSSRLPHTFGQGTKVEIK
16 | 0.00588 | 1e-06 | 170000 | 21.6 | 0.000584 | 27000 | VRDN-02539 (antibody, V domains shown) VH: EVQLVQSGGGLVKPGGSLRLSCAASGFTFSSFAMHWVRQAPGKGLEWISVIDTRGATYYADSVKGRFTISRDNAKNSLYLQMNSLRAEDTAVYYCARLGNFYYGMDVWGQGTTVTVSS VL: EIVLTQSPGTLSVSPGERATLSCRASQSIGSSLHWYQQKPGQAPRLLIKHASQSLSGIPDRFSGSGSGTDFTLTISRLEPEDFAVYYCHQSSRLPHTFGQGTKVEIK
17 | 0.00535 | 1e-06 | 187000 | 0.0389 | 1e-06 | 25700 | VRDN-02542 (antibody, V domains shown) VH: EVQLVQSGGGLVKPGGSLRLSCAASGFTFSSFAMHWVRQAPGKGLEWISVIDTRGATYYADSVKGRFTISRDNAKNSLYLQMNSLRAEDTAVYYCARLGNFYYGMDVWGQGTTVTVSS VL: EIVLTQSPGTLSVSPGERATLSCRASQSIGSSLHWYQQKPGQAPRLLIKYASHSLSGIPDRFSGSGSGTDFTLTISRLEPEDFAVYYCHQSSRLPHTFGQGTKVEIK
